The values that follow come from PMC8570598.

In this experiment the target is Rat tail collagen-I (polymerized fibrillar collagen type I) (rat) (UniProt P02454). Put plainly: FRAP.
UniProt P02454, sequence (P02454 152-1207, chain 1 of 2): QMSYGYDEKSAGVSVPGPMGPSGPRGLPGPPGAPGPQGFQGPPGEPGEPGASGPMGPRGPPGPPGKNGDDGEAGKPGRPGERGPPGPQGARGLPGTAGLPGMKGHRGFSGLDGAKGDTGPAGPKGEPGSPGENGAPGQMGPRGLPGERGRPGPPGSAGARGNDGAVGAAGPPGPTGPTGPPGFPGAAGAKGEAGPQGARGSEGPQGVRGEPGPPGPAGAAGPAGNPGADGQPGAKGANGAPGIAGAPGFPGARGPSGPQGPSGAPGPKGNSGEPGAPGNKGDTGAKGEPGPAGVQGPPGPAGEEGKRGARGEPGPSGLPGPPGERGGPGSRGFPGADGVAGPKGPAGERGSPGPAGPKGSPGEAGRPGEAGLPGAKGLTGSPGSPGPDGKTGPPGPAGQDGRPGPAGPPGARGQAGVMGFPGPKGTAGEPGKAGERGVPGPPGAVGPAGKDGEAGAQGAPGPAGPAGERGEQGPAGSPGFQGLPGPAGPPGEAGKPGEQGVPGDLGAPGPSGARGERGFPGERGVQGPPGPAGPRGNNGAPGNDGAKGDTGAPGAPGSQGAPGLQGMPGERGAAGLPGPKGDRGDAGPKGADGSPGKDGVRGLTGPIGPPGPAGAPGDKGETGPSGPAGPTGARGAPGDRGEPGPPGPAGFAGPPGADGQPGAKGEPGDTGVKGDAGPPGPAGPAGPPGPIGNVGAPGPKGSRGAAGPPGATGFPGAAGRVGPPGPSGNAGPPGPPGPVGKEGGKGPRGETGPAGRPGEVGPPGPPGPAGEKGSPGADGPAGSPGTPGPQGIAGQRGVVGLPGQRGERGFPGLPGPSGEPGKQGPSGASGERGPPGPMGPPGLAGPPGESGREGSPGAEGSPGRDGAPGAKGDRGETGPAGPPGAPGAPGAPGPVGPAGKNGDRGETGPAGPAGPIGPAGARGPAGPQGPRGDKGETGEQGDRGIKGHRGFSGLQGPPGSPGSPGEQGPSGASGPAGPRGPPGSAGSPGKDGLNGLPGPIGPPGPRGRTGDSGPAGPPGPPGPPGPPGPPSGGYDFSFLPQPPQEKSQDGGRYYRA
UniProt P02454, sequence (P02466 86-1125, chain 2 of 2, further chain): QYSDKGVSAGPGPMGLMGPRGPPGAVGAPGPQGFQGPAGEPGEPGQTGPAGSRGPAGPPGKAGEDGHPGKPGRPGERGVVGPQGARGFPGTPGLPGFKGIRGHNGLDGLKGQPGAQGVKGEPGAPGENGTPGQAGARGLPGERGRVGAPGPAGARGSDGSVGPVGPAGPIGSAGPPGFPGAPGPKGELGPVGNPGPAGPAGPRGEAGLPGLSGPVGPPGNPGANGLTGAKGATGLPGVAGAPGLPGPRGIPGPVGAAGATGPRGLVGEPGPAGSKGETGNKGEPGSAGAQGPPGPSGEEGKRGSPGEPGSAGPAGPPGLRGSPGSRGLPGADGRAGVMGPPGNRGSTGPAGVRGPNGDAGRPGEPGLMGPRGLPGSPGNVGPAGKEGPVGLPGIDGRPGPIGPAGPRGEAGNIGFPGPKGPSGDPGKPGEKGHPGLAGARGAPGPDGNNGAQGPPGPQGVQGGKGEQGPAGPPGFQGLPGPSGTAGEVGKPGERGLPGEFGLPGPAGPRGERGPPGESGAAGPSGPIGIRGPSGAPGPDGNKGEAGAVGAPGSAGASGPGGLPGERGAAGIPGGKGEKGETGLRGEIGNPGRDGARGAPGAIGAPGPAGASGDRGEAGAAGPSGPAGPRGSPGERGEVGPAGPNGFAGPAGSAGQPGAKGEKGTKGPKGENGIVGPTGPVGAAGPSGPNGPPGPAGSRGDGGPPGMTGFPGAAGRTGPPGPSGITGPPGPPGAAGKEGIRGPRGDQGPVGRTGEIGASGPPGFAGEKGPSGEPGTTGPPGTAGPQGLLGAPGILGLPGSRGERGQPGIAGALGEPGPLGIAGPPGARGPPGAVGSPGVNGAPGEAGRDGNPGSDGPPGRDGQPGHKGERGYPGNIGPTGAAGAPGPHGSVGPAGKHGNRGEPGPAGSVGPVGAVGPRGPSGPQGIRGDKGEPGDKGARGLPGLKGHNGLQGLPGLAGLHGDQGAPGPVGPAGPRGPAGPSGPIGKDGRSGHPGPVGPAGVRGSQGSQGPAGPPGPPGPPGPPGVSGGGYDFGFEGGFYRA

Turning to “Alexa488-labeled epidermal growth factor (EGF) (ligand)”, the mobile fraction (FRAP, free Alexa488-EGF in the medium) was found to be 50%.
